These results are taken from the nanobody polyreactivity screen of Harvey et al. (2022).

This series in a line: yeast display, Sf9 membrane polyspecificity reagent, FACS + sequencing; frameworks hold sequencing errors. The gist of the method: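 A nanobody's polyreactivity label depends on the gate it was sorted from. Yeast display cells were stained with 10% biotinylated, detergent-solubilized Sf9 membrane reagent for 1 hour at 4 °C, enriched on streptavidin microbeads and sorted by FACS. The low and high (top ~1%) gates were set on anti-HA fluorescence for expression and streptavidin fluorescence for reagent binding.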
For “EEELVESAVRLVQAGVSLRLSCAASAIIYAYNAMGWYRQAPGKESELVAAISSGDDTNYADSVKGRFTISRDNAKNTVYLQLNSLKPEDTAVYYCAAEVWTAFTHGSYWTVVDYDYWGQGTQVTVST”, the “polyreactivity (PSR sort gate)” value was “low polyreactivity”.

Regarding “EEELVESGGGLVQAGGSSLRLSCAASGRTFSTNVMGWYRQAPGKERELVAAINRSGGSTYYADSVKGRFTISRDNAKNTVYLQMNSLKPEDTAVYYCAKRDGVGNHEFDYWGQGTQVTVSS”, the “polyreactivity (PSR sort gate)” value is “low polyreactivity”.

As for “EVHLVESGGGLVQPGGSLRLSCAASGDIYSRYRMGWYRQAPGKGREFVAAISGGSSTNYADSVKGRFTISRDNSKNTVYLQMNSLRAVDTAVSYCAAYKIDSDPRVYWGQGTQVTVSS”, the “polyreactivity (PSR sort gate)” value is “low polyreactivity”.

On to “EVQLEESGGGLVQAGGSLRLSCAASGSTFYQYALGWSRQAPGKERELVAAITTIGGRTYYADSVKGRFTISRDNAKNTVYLQMNSLNPEDTAVYYCAAGYRAWEPYGHYGYWGQGTQVTVSS”, for which the “polyreactivity (PSR sort gate)” value is recorded as “high polyreactivity”.

In the case of “EVQLEESGGGLVQAGGSLRLSCPASGLIFGLYAMGWYRQAPGKERELVAAISYRTDSTYADSVKGRFTISRDNAKNTFYLQKNSLIPEDTAVYYCAADLRVSVGYYYWGQGTQVTVSS”, the “polyreactivity (PSR sort gate)” value is reported as “low polyreactivity”.

“EVQLVESGAGLVQAVGSLRLSCYASGFIFGYNAMGWYRQAHGKERELVAAISSGGGNTYYADSVKGRFTISRDNAKNTVYLQMNSLKPEDTAVYYCAAPDPRRPRRGDSWGQGTQVTVSS”: the “polyreactivity (PSR sort gate)” value is on record as “low polyreactivity”.

On to “EVQLVESGGGLVQAGGSLRLICAASGRTFQNYAMGWYRQAPGKERELVADITSGGSTYADSVKGRFTISRDNAKNTVYLQMNSLKPEDTAVYYCNADRTYPEPAEYYYWGQGTQVTVSS”, for which the “polyreactivity (PSR sort gate)” value is listed as “low polyreactivity”.

With “EVQLVESGGGLVQAGGSLRLSCAASGRTFSYYAMGCYRQAPGKERELVAAISGGGSTNYADSVKGRFTISRDNAKYTVYLQMNSLKPEDTAVYYCAVGGFLRYRISLGKSYYYWGQGTQVTVSS”, the “polyreactivity (PSR sort gate)” value was “high polyreactivity”.

With “EVQLVESGGGLVQAGGSLRLSCAASGSTFRYNAMGWSRQAPGKEWEFVATISWTTGSTYYADSVKGRFTISRDNAKNTVYLQMNCLNAEDTAVYYCAAVASLFSDFRDYDYWGQGTQVTVSS”, the “polyreactivity (PSR sort gate)” value is “low polyreactivity”.

As for “EVQLVESGGGLVQAGGSLRLTCAASGSIFPVYAMGWYRQAPGKERELVASISNGGTTYYADSVKGRFTISRDNAKNTVYLQMKSLKAEDTAVYYCAATGWAYGYGYGYWGQGSQVTVSS”, the “polyreactivity (PSR sort gate)” value is recorded as “low polyreactivity”.

As to “EVQLVESGGGLVQPGGSLRLSCAASGYIYSRYRMGWYRQAPGKGREFVAAISGGSSTNYADSVKGRFTISRDNSKYTVYLQMNSLRAEDTAVYYCAAFKIDSDPRVYWGQGTQVTVSS”, the “polyreactivity (PSR sort gate)” value was “low polyreactivity”.

For “EVQLVESGGGLVQPGGSLRLSCAASGYIYSRYRMGWYRQAPGKGREFVAAISGGSSTNYADSVKGRFTSSRDNSKNTVYLQMNSLRAEDTAVYYCAAYKIDSDQRVYWGQGTQVTVSS”, the “polyreactivity (PSR sort gate)” value is on record as “low polyreactivity”.

With “EVQQVESGGGLVQPGGSLRLSCAASGYIYSRYRMGWCRQAPGKGREFVAAISGGSSTNYADSVKGRFTISRDNSKITVYLQMKSLRAEDTAVYYCAAYMIDSDPRVFWGQGTQVNVSS”, the “polyreactivity (PSR sort gate)” value is recorded as “low polyreactivity”.

With “EVQVVESGGGLVQAGGSLRLSCAASGRIFLRNAMGWYRQAPGKEWEFVATITSGGSTFYADSVKGRFTISRDNAKNTFYLQMNRLKPEDTAVYYCAAPSYYTPFHTPNYCWGQVTQVTVSS”, the “polyreactivity (PSR sort gate)” value is on record as “low polyreactivity”.

Consider “HAQLQESGGGLVQAGGSLRRSCAASGSMFRFSGMGWYRRAPGKERELVASIGFGSITYYADRVKGRFTISRDNANHTVYLQMNTLKPEDTAVYYCAVQVQDESWLDYWGQGTQVTVSC”, for which the “polyreactivity (PSR sort gate)” value was “low polyreactivity”.

“HAQLQESGGGLVQAGGSLRRSFAASGSIFRFSGMGWYRRAPGKERELVASIGFGSITYYADRVKGRFTISRDNANNTVYLQMNSLKPEDTAVYYCAVQVQDESWLDYWGQGTQVTVSC”: the “polyreactivity (PSR sort gate)” value was “low polyreactivity”.

Take “HEQRVESCGGLVQARCSLRLSCAASGGTFRYNTMGWYRQAPGKERDLVADISSDGRTYYADSVKGRFTISRDNAKTSVYLQMNSLKPEDTAVDYCAVDRFTPDVYEYGYWGQGTQVTVSS”: the “polyreactivity (PSR sort gate)” value is listed as “high polyreactivity”.

Regarding “HLQLVESGGGLVQAGGSLRLSCAASGSIFYYNAMGWYRQAPGKERELVASIRANGGNTYYADSVKGRFTISRDNAKNTVYLQMNSLKPEETAVYYCAKESRYAHLYYYWGQGTQVTVSS”, the “polyreactivity (PSR sort gate)” value is “low polyreactivity”.

In the case of “HVELVDSGGGLVQAGGSLRLSCAASGSIFTDNTRGWFRQAPAKDRELVASISSGGRTYYADSVKGRFTISRDNAKNTVYLQMNSLKPEDTAVSYCAVSCWWKHNYWGQGTQVTVSS”, the “polyreactivity (PSR sort gate)” value is “high polyreactivity”.

For the sequence “HVPLVESGGGIVQAGGRMRLSCAASGSTFTEYAMGGYRQAPGKQREWVAGISSDGSTKYADSVKGRFTISRDNAKNTVYLQMNSLNPEDSAVYYCNKDQSDAKFDYWGQGTQVTVSS”, the “polyreactivity (PSR sort gate)” value was “low polyreactivity”.

Turning to “HVQLQESGGGLVQACGSQRLSCAASGSISEGQDMGRYRLAPGKEREFVAGIAPGATTYYADSVKGRFTISRDNAKITVYLQMNSLIPEDNAVYYCAARSVTETDHDYWGQGTQVTVSS”, the “polyreactivity (PSR sort gate)” value is “low polyreactivity”.

Turning to “HVQLQESGGGLVQAGGSLRLSCAASGSIFQATYMGWYRQAPGKEREFVASITYGSITKYADSVNGRFTIGRDNAKDTLYLQMNSLKPEDTAVYYCAVDRHYIPAFHYWGQGTQVTVSS”, the “polyreactivity (PSR sort gate)” value is recorded as “low polyreactivity”.

In the case of “HVQLQETGGGLVQAGGSLRLSCAASGSIFQATYMGWYRQAPGKEREFVASITYGSITIYADSVKGRFTIGRDNAKDTLYLQMNSLKPEDTAVYYCAVDRHYIPAFHYWGQGTQVTVSS”, the “polyreactivity (PSR sort gate)” value is listed as “low polyreactivity”.

As to “HVQLVDSGGGLVQAGGSLRLSCAASGYTFKYNTMGWYRQAPGKERDLVAAITRSGGSTYYADSVKGRFTISRDNAKNTVYLQMNSLKPEDTAVYYCAARAAYKQPVSFDYWGQGTQVTVSS”, the “polyreactivity (PSR sort gate)” value was “high polyreactivity”.

With “HVQLVESAGGLVQAGGSLRVSCAASGRTFEDNAMGWSRPAPGKERELVAAISSAGSTNYADSVKGRFTISRDNAKNTVYLQMTSLKPEDTAVYYCNATVYWPYDWRTSDYWGHGTQVTVSS”, the “polyreactivity (PSR sort gate)” value is on record as “low polyreactivity”.

For the sequence “HVQLVESGGALVQAGGSLRLSCAASGYIFYYYAMGWYRQAPGKERELVAAITFSGGSTYYADSVKGRFTISRDIAKNTVYLQMNSLKPEDTAGYYCDKVELRDAAELGSDEYDYWGQGTKVTVSS”, the “polyreactivity (PSR sort gate)” value is “low polyreactivity”.

“HVQLVESGGGIVQAGGSLRLSCAASGSTYVTNDMGSYRQAPGKERELVAAIYSGTSTNYADSVKGRFTISRDNAKNTVYLQMNSLKPEDTAVYYCAADSLKRYDYWGQGTQVSVSS”: the “polyreactivity (PSR sort gate)” value was “low polyreactivity”.

Take “HVQLVESGGGIVQAGGSLRLSSAASGSTFGSNAMGWYRQAPGKERELVAAITYSGGRTYYADSVKGRFTISRDNAKNTVYLQMNSLKPEDTAVYYCAATFGFFYYQYDYWGQGTQVTVSS”: the “polyreactivity (PSR sort gate)” value is recorded as “low polyreactivity”.

On to “HVQLVESGGGLVEAGGSLRLSCAASGYISYVNAMGWYRQAPGKERELVATISIRGGRTYYADSVKGRFTISRDNAKNTVYLQMNSLKPEDTAVYYCNVRRAYYRRGPYYSTYYYWGQGTQVTVSS”, for which the “polyreactivity (PSR sort gate)” value was “high polyreactivity”.

In the case of “HVQLVESGGGLVHAGGSLRLRCAASGFTFTTYAMGWYRQAPWKEMELVARISRRSGSTYYADSVKGRFTLSRDNAKNTVYLQMNSLKPDDTAVYYCNADVDRSTTIFDYWGQGTQVTVSS”, the “polyreactivity (PSR sort gate)” value is recorded as “high polyreactivity”.

On to “HVQLVESGGGLVHAGGSLRLSCAASGSILPKYAMGWYRQEPGKQRLLVATITWSGSSTYYADSVKGRFTISRDNAQNTVYLQMNSLKPEDTAVYYCAATGWSSFYYRFEYWGQGTQVTVSS”, for which the “polyreactivity (PSR sort gate)” value is listed as “low polyreactivity”.

Take “HVQLVESGGGLVPAGGSLRLSCAASGSTFIGYARGWYRQAPGKERELVAAISWSGGRTYYADSVKGRFTISRDNAKNTVYLQMNSLKPEDTAVYYCNTVPYRISVQFNYWGQGTQVTVSS”: the “polyreactivity (PSR sort gate)” value is given as “high polyreactivity”.

Consider “HVQLVESGGGLVQAGCSLRLSCAASGSIFLRNTMGWYRQAPGKEREFVAAITKRGGTTYYADSVKGRFTMSRDNAKNTVYLQMNSLKPDDTAVYYCAKSYDNEYGYWGQGTQVTVSS”, for which the “polyreactivity (PSR sort gate)” value is listed as “high polyreactivity”.

Regarding “HVQLVESGGGLVQAGGILRLSCAASGSTFVKYAMGWYRQATGKERELVAAISSRGGRTYYADSVKGRFTISRDNAKNTVYLQMNSLKPEDTAVYYCNKGTRLDGEYDYWGQGTQVTVSS”, the “polyreactivity (PSR sort gate)” value is listed as “high polyreactivity”.

Consider “HVQLVESGGGLVQAGGSLRISCAASGFTFRYYAMGWYRQAAGKEMELVAAITSSGGRTYYADSVKGRFTISRDNAKNTVYLQMNSLKPEDTAVYYCNAAYGYVSRVYYLIEHDYWGHGTQVTVSS”, for which the “polyreactivity (PSR sort gate)” value is on record as “high polyreactivity”.

As to “HVQLVESGGGLVQAGGSLRLNCAASGSTFKRNAMGWYRQATGKERELVAAISRSGGSTYYADSVKGRFTISRDNAKTTVYLQMNSLNPEDTAVYFCNALRGTASWRGYYWGQGTQVTVSS”, the “polyreactivity (PSR sort gate)” value is reported as “high polyreactivity”.

In the case of “HVQLVESGGGLVQAGGSLRLRSAASGRIFYYNAMGWYRQAPGKERELVASISWDASSTYYADSVKGLFTISRDNAKNTVYLQMNSLKPEDTAVYYCNKIHLYRQYDYWGQGTQVTVSS”, the “polyreactivity (PSR sort gate)” value was “low polyreactivity”.

For “HVQLVESGGGLVQAGGSLRLSCAASGFIFPENAMGWYRQAPGKERELVAAIRTGGSTYYADSVKGRFTISRDNAKNTVYLQMNSLKPEDTAVYYCAARFHYEKYSYWYFDEDYWGQGTQVTVSS”, the “polyreactivity (PSR sort gate)” value is “high polyreactivity”.

Consider “HVQLVESGGGLVQAGGSLRLSCAASGFIFQYYCMGWYRQATRKERELVAAIDSRGGSTYYADSVKGRFTISRDNAKNTVYLQMNSLNPADTAVYYCAAMGLYQGTLNHFYYWGQGTQVTVSS”, for which the “polyreactivity (PSR sort gate)” value was “low polyreactivity”.

On to “HVQLVESGGGLVQAGGSLRLSCAASGFTFGWNDMGWYRQAPGKERELVAAITWSGGSTYYADSVKGRFTISRDNAKNTVYLQMNSLKPEDTAVYYCAAVVSDYVWRYEYWGQGTQVTVSS”, for which the “polyreactivity (PSR sort gate)” value was “low polyreactivity”.

As to “HVQLVESGGGLVQAGGSLRLSCAASGFTFWDYTMGWYRQAPGKERELVAAISSSGGGTYYADSVKGRFTISRDNAKNTVYLQMNSLKPEDTAVDYCNAVRFLDYWYPDTYGDWGQGTQVTLSS”, the “polyreactivity (PSR sort gate)” value is recorded as “low polyreactivity”.
